According to patent US20250215071A1, “Novel Mcl-1 inhibitor and combination of Mcl-1 and a BH3 mimetic, such as a Bcl-2 inhibitor” (NETRIS PHARMA, priority 2022, published 2025):

Tests used:
[1] = human, in vivo; cited from earlier work
H322 cells [2] = test: Xenografts of stable H322 cells in nude mice, tumor growth; assay type: in vivo, NMRI nude mice; details: 10 mg/Kg intravenously three times per week, vs Iso-mAb
Experimental: (§1) FIG. 3. COMMD2 is required for UNC5B-induced cell death and tumor suppression. (A): Silencing COMMD2 inhibits UNC5B-induced DNA fragmentation. Stable Hela cells inducible for UNC5B were transfected with two distinct siRNA scramble (siCTRL) or targeting COMMD2 (siCOMMD2-1 and -2). Upon treatment for 18 hours with the indicated concentrations of doxycycline (Dox), DNA fragmentation was evaluated through FACS analysis (n=3, **** p<0.0001, Ordinary two-way ANOVA). Values are given as means±SEM. (B, C, D): Tumor growth inhibition driven by netrin-1 interference necessitates UNC5B and COMMD2. NMRI nude mice were engrafted with stable H322 cells, knock-down for luciferase (sgLUC, used as a non-targeting control), UNC5B (sgUNC5B) or COMMD2 (sgCOMMD2), generated with CRISPR-Cas-9-KRAB strategy. Tumors obtained from nude mice engrafted with stable H322 cells were lysed and gene expression was evaluated by quantitative RT-PCR (n=2-3, *p<0.05, Kruskal-Wallis test with Dunn's multiple comparisons test) (B). After tumor volume reached 50 mm^3, mice were intravenously treated three time per week with anti-netrin-1 (NP137) or control (Iso-mAb) antibodies and tumor growth was evaluated (n=10 mice/group, ^nsp>0.05, *p<0.05, Mann-Whitney test, two-tailed) (C). A histogram illustrating tumor volumes at 35 days after first treatment is indicated in (D) (n=10 mice/group, ^nsp>0.05, *p<0.05, *** p<0.001, Kruskal-Wallis test with uncorrected Dunn's test). (E). Silencing of UNC5B and COMMD2 restrains in vivo NP137-induced apoptosis. After sacrificing the mice, tumors were resected and apoptosis was quantified by immunostaining of active cleaved caspase-3. […]
(§2) 5-week-old female athymic NMRI nude mice were obtained from Janvier Labs (Saint Bertevin, France). […] Tumor size was measured three times per week with a caliper. Tumor volume was calculated according to the formula v=0.5× (l×w2), where v is volume, l is length, and w is width. […]

H322 cells [3] = test: Cleaved active caspase-3 immunostaining of resected H322 tumors; assay type: in vivo, NMRI nude mice
Experimental: as §1, §2

B1: NP137: humanized anti-netrin-1 monoclonal antibody, VH SEQ ID NO: 22, VL SEQ ID NO: 16, human IgG1 (antibody, V domains shown)
VH: QVQLQQSGPGLVKPSQTLSLTCAISGYTFTSYNMHWVRQATGQGLEWMGAIYPGNGDTSYNQKFKGRLTISKDTSKNQVVLTMTNMDPVDTATYYCARGGTGFAYWGQG
VL: DIQMTQSPSSLSASVGDRVTITCKASQSVSNDVAWYQQKPGQAPRLLIYYASNRYTGIPPRFSGSGYGTDFTLTINNIESEDAAYYFCQQDYSSPWTFGQG
modifications: human IgG1 constant region; humanized variant; MISC_FEATURE - CDR according to IGMT
[1]
  safety profile: extremely good safety profile
H322 cells [2]; H322 tumors knocked-out of COMMD2 (sgCOMMD2)
  tumor growth: less sensitive
H322 cells [2]; H322 tumors knocked-out of UNC5B (sgUNC5B)
  tumor growth: less sensitive
H322 cells [2]; control H322 cells (sgLUC)
  tumor growth: strongly inhibited tumor growth
H322 cells [3]; H322 tumors knocked-out for COMMD2
  percentage of caspase-3 positive cells: failed to detect a similar increase
H322 cells [3]; H322 tumors knocked-out for UNC5B
  percentage of caspase-3 positive cells: failed to detect a similar increase
H322 cells [3]; control H322 tumors (sgLUC)
  apoptosis, cleaved active caspase-3 positive cells: associated with apoptosis induction
